Changes are numbered by the printed parent chain.
What was measured:
[1] = target: T1, high affinity SIRP-α D1 variant CV1-3; experiment: SPR, Langmuir fit
T1 chain: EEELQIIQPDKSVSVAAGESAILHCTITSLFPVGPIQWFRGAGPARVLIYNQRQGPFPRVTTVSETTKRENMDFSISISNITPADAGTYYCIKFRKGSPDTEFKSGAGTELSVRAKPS
How it was run: (§1)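 scFv-Fc antibody clones were captured from pre-filtered culture media onto anti-human IgG Fc, amine-coupled at about 4000 RU on a GLC chip in a ProteOn XPR36 instrument. SIRP analytes were passed over in PBS pH 7.4 with 0.01% Tween-20 at 25° C, and responses were double-referenced against interspot and buffer-blank signals. Curves were fitted to a 1:1 Langmuir model. Dissociation rate constants (koff) were taken from those fits.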

[2] = target: T2, C57BL/6 mouse SIRP-α D1 domain (mouse (C57BL/6 strain), UniProt P97797 32-148); experiment: SPR
T2 sequence: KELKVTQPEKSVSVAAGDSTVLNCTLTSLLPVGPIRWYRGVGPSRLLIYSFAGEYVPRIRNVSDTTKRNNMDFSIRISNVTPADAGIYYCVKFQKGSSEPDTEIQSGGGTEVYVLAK
How it was run: as §1

[3] = target: T3, mouse 129 SIRP-α D1 domain (mouse (129 strain), UniProt P97797 32-150); experiment: SPR
T3 construct: also called m129
T3 chain: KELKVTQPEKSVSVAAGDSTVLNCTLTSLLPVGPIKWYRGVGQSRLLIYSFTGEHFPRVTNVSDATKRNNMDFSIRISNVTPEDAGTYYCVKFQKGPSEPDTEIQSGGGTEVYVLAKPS
How it was run: as §1

[4] = target: T4, NOD mouse SIRP-α D1 domain (mouse (NOD strain)); experiment: SPR
T4 chain: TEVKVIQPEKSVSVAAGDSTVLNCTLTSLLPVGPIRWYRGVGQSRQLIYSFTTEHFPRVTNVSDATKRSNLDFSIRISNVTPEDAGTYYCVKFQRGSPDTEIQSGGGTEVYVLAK
How it was run: as §1

[5] = target: T5, cynomolgus SIRP-α D1 domain (cyno1) (cynomolgus monkey, UniProt Q5TFQ8 30-148 (human entry), limits assumed); experiment: SPR
T5 chain: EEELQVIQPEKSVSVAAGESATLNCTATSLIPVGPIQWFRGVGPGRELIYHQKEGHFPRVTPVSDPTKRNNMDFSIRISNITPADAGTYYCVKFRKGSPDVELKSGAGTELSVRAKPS
How it was run: as §1

[6] = target: T6, cynomolgus SIRP-α D1 domain (cyno2) (cynomolgus monkey, UniProt Q5TFQ8 30-148 (human entry), limits assumed); experiment: SPR
T6 chain: T5 chain with E19D, A27V, T28S, V42A, H51N, Q52L, P62A
How it was run: as §1

[7] = target: T7, human SIRP-α v1 D1 domain (human, UniProt P78324 31-149); experiment: SPR, Langmuir fit
T7 construct: also called human v1
T7 sequence (P78324 31-149 limits assumed): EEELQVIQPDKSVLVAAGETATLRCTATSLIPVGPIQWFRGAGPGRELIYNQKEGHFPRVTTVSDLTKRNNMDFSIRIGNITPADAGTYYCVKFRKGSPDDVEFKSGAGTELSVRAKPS
How it was run: as §1

[8] = target: T5, cynomolgus SIRP-α D1 domain (cyno1); experiment: SPR, Langmuir fit
How it was run: as §1

[9] = target: T6, cynomolgus SIRP-α D1 domain (cyno2); experiment: SPR, Langmuir fit
How it was run: as §1

[10] = target: T8, human SIRP-α v2 D1 domain (human); experiment: SPR
T8 construct: also called human v2
How it was run: as §1

[11] = target: T9, human SIRPβ isoform 1 (human, UniProt O00241 30-148); experiment: SPR
T9 construct: also called SIRPb; sirpb1
How it was run: as §1

[12] = target: T10, human SIRP-α v1 (human, UniProt P78324 31-149); experiment: SPR Koff +/-
T10 construct: also called Human v1; Human V1
T10 sequence (P78324 31-149 limits assumed): as above
How it was run: (§2)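 Antibodies were amine-coupled (GLC chip) or captured via biotinylated Protein A (NLC chip) on a ProteOn XPR36, and SIRP analytes were injected in one-shot kinetic mode at 25° C in PBS pH 7.4 with 0.01% Tween-20. KD is kd/ka from apparent rate constants given by a global simple Langmuir fit of double-referenced data, with analyte concentrations nominal.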

[13] = target: T11, human SIRPβ isoform 1 (human, UniProt O00241 30-148); experiment: SPR Koff +/-
T11 construct: also called Beta; Human SIRPb
How it was run: as §2

[14] = target: T12, human SIRP-α v2 D1 domain (human); experiment: SPR, captured scFv-Fc
T12 construct: also called human v2; human α v2
How it was run: as §1

[15] = target: T13, cynomolgus SIRP-α D1 domain (SEQ ID NO:12) (cynomolgus, UniProt Q5TFQ8 30-148 (human entry), limits assumed); experiment: SPR, captured scFv-Fc
T13 construct: also called cyno2; Cyno2
T13 chain: T5 chain with E19D, A27V, T28S, V42A, H51N, Q52L, P62A
How it was run: as §1

[16] = target: T14, C57BL/6 mouse SIRP-α D1 domain (mouse (C57BL/6 strain), UniProt P97797 32-148); experiment: SPR, captured scFv-Fc
T14 sequence: T2 sequence
How it was run: as §1

[17] = target: T15, human SIRPγ isoform 1 (human, UniProt Q9P1W8 29-147); experiment: SPR, captured scFv-Fc
T15 construct: also called sirpg; sirp-g
How it was run: as §1

[18] = target: T16, NOD mouse SIRP-α D1 domain (mouse (NOD strain)); experiment: SPR, captured scFv-Fc
T16 chain: T4 chain
How it was run: as §1

[19] = target: T17, cynomolgus SIRP-α D1 domain (SEQ ID NO:11) (cynomolgus, UniProt Q5TFQ8 30-148 (human entry), limits assumed); experiment: SPR, captured scFv-Fc
T17 construct: also called cyno1
T17 chain: T5 chain
How it was run: as §1

[20] = target: T18, mouse 129 SIRP-α D1 domain (mouse (129 strain), UniProt P97797 32-150); experiment: SPR, captured scFv-Fc
T18 construct: also called m129
T18 chain: T3 chain
How it was run: as §1

[21] = target: T19, human SIRPβ isoform 1 (human, UniProt O00241 30-148); experiment: SPR, captured scFv-Fc
T19 construct: also called sirpb1; Sirpb1
How it was run: as §1

[22] = target: T10, human SIRP-α v1; experiment: SPR
How it was run: as §2

[23] = target: T20, human SIRP-α v2 (human); experiment: SPR
T20 construct: also called Human v2; Human V2
T20 sequence (chain, as listed by the source limits assumed): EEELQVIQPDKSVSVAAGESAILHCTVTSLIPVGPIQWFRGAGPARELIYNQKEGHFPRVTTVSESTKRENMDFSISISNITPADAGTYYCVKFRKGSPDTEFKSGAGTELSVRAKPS
How it was run: as §2

[24] = target: T21, BL6 mouse SIRP-α (mouse (C57BL/6 strain), UniProt P97797 32-148); experiment: SPR, antibody on GLC chip
T21 construct: also called C57BL/6
T21 sequence: T2 sequence
How it was run: (§3)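 SIRP analytes were run over antibody surfaces in PBS pH 7.4 with 0.01% Tween-20 at 25° C, using one-shot injections at 100, 33, 11, 3.7, 1.2 and 0 nM. The antibodies, purified by Protein A, had been amine-coupled (~1000 RU) to a GLC chip of a ProteOn XPR36 biosensor from an 80 nM solution in 10 mM sodium acetate pH 4.5. Association lasted 90 s at a flow of 100 μL/min, and dissociation lasted 1200 s. KD equals kd/ka, obtained by fitting double-referenced data globally to a Langmuir model.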

[25] = target: T22, BALBc mouse SIRP-α (mouse (BALB/c strain)); experiment: SPR, antibody on GLC chip
T22 chain: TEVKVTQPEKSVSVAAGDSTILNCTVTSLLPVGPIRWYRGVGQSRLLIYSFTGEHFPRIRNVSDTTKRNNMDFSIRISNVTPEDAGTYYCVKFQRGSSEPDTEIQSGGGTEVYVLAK
How it was run: as §3

[26] = target: T23, NOD mouse SIRP-α (mouse (NOD strain)); experiment: SPR, antibody on GLC chip
T23 chain: T4 chain
How it was run: as §3

[27] = target: T10, human SIRP-α v1; experiment: SPR, antibody on GLC chip
How it was run: as §3

[28] = target: T11, human SIRPβ isoform 1; experiment: SPR, antibody on GLC chip
How it was run: as §3

[29] = target: T20, human SIRP-α v2; experiment: SPR, antibody on GLC chip
How it was run: as §3

[30] = target: T24, human SIRPγ isoform 1 (human, UniProt Q9P1W8 29-147); experiment: SPR, antibody on GLC chip; fitted KD (M) in Table Q; weak binding, 23.9 nM
T24 construct: also called Gamma; Human SIRPg
Procedure: All experiments were performed at 25° C. using a SPR-based ProteOn XPR36 biosensor (BioRad, Inc, Hercules, Calif.) equipped with GLC or NLC sensor chips. […] Purification was carried out by standard Protein A affinity column chromatography and eluted antibodies were stored in PBS buffer.
For the method using GLC chip, the analytes were injected and flowed over anti-SIRPα antibodies immobilized (˜1000 RUs) on GLC chips using Proteon™ Amine Coupling Kit. For the immobilization step, GLC chip was activated with EDAC/Sulpho-NHS 1:1 (Biorad) diluted 1/100 for 300 s at 25 μL/min. Anti-SIRPα antibodies were diluted to 80 nM concentration in 10 mM sodium acetate buffer pH 4.5 and immobilized to the chip at 30 μL/min for 50 s. Chip was inactivated with ethanolamine for 300 s at 25 μL/min. The analytes (e.g., SIRP-α from different species, SIRP-β, SIRP-γ) were injected in a “one-shot” kinetic mode at nominal concentrations of 100, 33, 11, 3.7, 1.2 and 0 nM. Association times were monitored for 90 s at 100 μL/min, and dissociation times were monitored for 1200 s. The surfaces were regenerated with a 2:1 v/v blend of Pierce IgG elution buffer/4M NaCl.

B1: S45 (scFv, V domains shown)
VH: AVTLDESGGGLQTPGGALSLVCKASGFTFSSYAMGWVRQAPGKGLEWVAGIDDDGSTANYGPAVKGRATISRDNGQSTVRLQLNNPRAEDSGTYFCAKASVTGWSAHISGRLDTWGHGTEVIVSS
VL: ALTQPASVSANPGETVKITCSGGGIYYYGWYQQKSPGSAPVTLIYENDKRPSDIPSRFSGSTSGSTNTFTITGVQAEDEAVYYCGGYDSNTTSGIFGAGTTLTVL
notes: also called clone 45; scFv-Fc form of AB45
koff [1]: 4.76e-05 s⁻¹
binding result [2]: no binding (tested: Koff > 5 × 10^3 (legend))
binding result [3]: no binding (tested: Koff > 5 × 10^3 (legend))
binding result [4]: no binding (tested: Koff > 5 × 10^3 (legend))
binding result [5]: no binding (tested: Koff > 5 × 10^3 (legend))
binding result [6]: no binding (tested: Koff > 5 × 10^3 (legend))

B2: S194 (scFv, V domains shown)
VH: DVQLVESGGGVVRPGESLRLSCAASGFTFRNYGMSWVRQAPGEGLEWVSASSGSGSTYYADSVKGRFTISRDNSKNTLYLQMNSLRAEDTAIYYCAKVTWNNFFDYWGLGTLVTVSS
VL: EIVLAQSPDTLSVSPGERATLTCRASQDVAGKLAWYQQKPGQAPRLLIHATSSRADGIPARFSGSGSGTEFTLTITGLQSEDFAVYYCQQHYDWSPLTFGGGTKVEIK
koff [7]: 0.00117 s⁻¹
koff [1]: 0.00111 s⁻¹
koff [8]: 0.00131 s⁻¹
koff [9]: 0.00111 s⁻¹
binding result [10]: no binding (tested: Koff > 5 × 10^3 (legend))
binding result [11]: no binding (tested: Koff > 5 × 10^3 (legend))
binding result [2]: no binding (tested: Koff > 5 × 10^3 (legend))

B3: antibody 214 (antibody, V domains shown)
VH: DVQLVESEGGVVRPGESLRLSCEASGFTFRNSYMTWVRQAPGEGLEWVSTISDTGDTAYYADSVKGRFTISRDNSKNSLYLQMNSLRAEDTAIYYCAKSWIWWTFFDYWGLGTLVTVSS
VL: ALTQPASVSANLGGTVEITCSGGNSNHYGWYQQKSPGSAPVTLIYADTNRPSNIPSRFSGSTSGSTSTLTITGVQAEDEAVYYCGGSSTGDGIFGAGTTLTVL
notes: also called S214
binding result [12]: no binding
binding result [13]: no binding

B4: S138 scFv-Fc (scFv)
scFv: EIVLTQSPGTLSVSPGERVILTCRASQSVDTYNLAWYQQKPGQAPRLLIYDLSTRATGIPDRFSGSGSGTEFTLTINSLEPEDFAVYYCHQYYDWPPYTFGGGTKVEIKGQSSRSSGGGGSSGGGGSDVQLVESGGGVVRPGESLRLSCAASGFTFSNYAMNWVRQAPGEGLEWVSGISGRGGDTYYADSVKGRFTISRDNSKNTLYLQMNSLRAEDTAIYYCAKGTWNYGSFDYWGLGTLVTVSSSLDPKSSDKTDTCPPCPAPELLGGPSVFLFPPKPKDTLMISRTPEVTCVVVDVSHEDPEVKFNWYVDGV
notes: scFv-Fc; Human framework
binding result [14]: no binding (tested: 100 nM)
binding result [15]: no binding (tested: 100 nM)
binding result [16]: no binding (tested: 100 nM)
binding result [17]: no binding (tested: 100 nM)
binding result [18]: no binding (tested: 100 nM)
binding result [19]: no binding (tested: 100 nM)
binding result [20]: no binding (tested: 100 nM)
binding result [21]: no binding (tested: 100 nM)

B5: antibody 136 (antibody, V domains shown)
VH: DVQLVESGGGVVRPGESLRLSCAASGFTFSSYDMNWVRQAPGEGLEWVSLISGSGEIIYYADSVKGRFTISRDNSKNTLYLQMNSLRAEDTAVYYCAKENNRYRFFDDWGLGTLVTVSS
VL: ETVLTQSPGTLTLSPGERATLTCRASQSVYTYLAWYQEKPGQAPRLLIYGASSRATGIPDRFSGSGSGTEFTLTISSLQSEDFAVYYCQQYYDRPPLTFGGGTKVEIK
notes: also called AB136; S136
Kd [22]: 0.458 nM
Kd [23]: 3.22 nM
Kd [24]: 12.7 nM
Kd [25]: 0.35 nM
Kd [26]: 0.554 nM
Kd [27]: 0.458 nM
Kd [28]: 4.35 nM
Kd [29]: 1.63 nM
Kd [30]: 23.9 nM

From patent US20210363269A1 (ALX ONCOLOGY, published 2021)
